PMC5587775 (Nucleic Acids Research, 2017)

Target: T1, recombinant MyoD protein (UniProt P10085 1-318)
T1 sequence (looked up): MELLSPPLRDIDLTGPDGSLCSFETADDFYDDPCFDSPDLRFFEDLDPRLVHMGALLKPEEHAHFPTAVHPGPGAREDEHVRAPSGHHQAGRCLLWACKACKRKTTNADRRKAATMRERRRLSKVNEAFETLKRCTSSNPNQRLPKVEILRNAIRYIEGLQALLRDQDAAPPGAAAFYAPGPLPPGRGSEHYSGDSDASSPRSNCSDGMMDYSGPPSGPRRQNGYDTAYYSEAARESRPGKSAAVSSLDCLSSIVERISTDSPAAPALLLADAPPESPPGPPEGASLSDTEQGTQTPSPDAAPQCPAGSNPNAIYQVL
Assay: pull-down

B1: FoxO3 (natural protein, mouse (endogenous in C2C12), UniProt Q9WVH4 1-672, looked up)
chain: MAEAPASPVPLSPLEVELDPEFEPQSRPRSCTWPLQRPELQASPAKPSGETAADSMIPEEDDDEDDEDGGGRASSAMVIGGGVSSTLGSGLLLEDSAMLLAPGGQDLGSGPASAAGALSGGTPTQLQPQQPLPQPQPGAAGGSGQPRKCSSRRNAWGNLSYADLITRAIESSPDKRLTLSQIYEWMVRCVPYFKDKGDSNSSAGWKNSIRHNLSLHSRFMRVQNEGTGKSSWWIINPDGGKSGKAPRRRAVSMDNSNKYTKSRGRAAKKKAALQAAPESADDSPSQLSKWPGSPTSRSSDELDAWTDFRSRTNSNASTVSGRLSPILASTELDDVQDDDGPLSPMLYSSSASLSPSVSKPCTVELPRLTDMAGTMNLNDGLAENLMDDLLDNIALPPSQPSPPGGLMQRGSSFPYTAKSSGLGSPTGSFNSTVFGPSSLNSLRQSPMQTIQENRPATFSSVSHYGNQTLQDLLASDSLSHSDVMMTQSDPLMSQASTAVSAQNARRNVMLRNDPMMSFAAQPTQGSLVNQNLLHHQHQTQGALGGSRALSNSVSNMGLSDSSSLGSAKHQQQSPASQSMQTLSDSLSGSSLYSASANLPVMGHDKFPSDLDLDMFNGSLECDMESIIRSELMDADGLDFNFDSLISTQNVVGLNVGNFTGAKQASSQSWVPG
Question: How did the “fold retrieval with E-box motif DNA against without” value turn out when B1 was run?
Answer: 1.6 fold
